From patent US20130005646A1 (Novo Nordisk, published 2013)
Starred links: 1 amine or outer side, 2 acyl side, 3 side chain; linkers in the order of their positions; H or OH if unused. Positions of bridges follow the written chain, without caps; N, C: chain ends. *: point of attachment. C20 diacid = O=C(O)CCCCCCCCCCCCCCCCCCC(=O)*; C18 diacid = O=C(O)CCCCCCCCCCCCCCCCC(=O)*; γGlu = O=C(O)[C@H](CCC(=O)[*:2])N[*:1]

T1: human calcitonin (a) receptor (human, UniProt P30988 25-474)
T1 sequence (looked up): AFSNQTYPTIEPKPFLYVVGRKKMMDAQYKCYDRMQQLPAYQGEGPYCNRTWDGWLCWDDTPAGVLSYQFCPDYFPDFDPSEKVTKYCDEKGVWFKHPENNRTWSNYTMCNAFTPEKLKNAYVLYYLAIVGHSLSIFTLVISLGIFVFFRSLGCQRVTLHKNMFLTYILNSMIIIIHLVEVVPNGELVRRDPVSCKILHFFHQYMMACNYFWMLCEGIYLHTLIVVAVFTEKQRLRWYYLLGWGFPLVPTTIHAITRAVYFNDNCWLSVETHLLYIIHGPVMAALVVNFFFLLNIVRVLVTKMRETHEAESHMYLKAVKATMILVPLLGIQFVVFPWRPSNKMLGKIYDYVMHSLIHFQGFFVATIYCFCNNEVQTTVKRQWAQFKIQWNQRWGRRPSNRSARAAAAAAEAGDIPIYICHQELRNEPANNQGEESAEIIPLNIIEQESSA

T2: human amylin 3(a) receptor (human calcitonin receptor + RAMP-3) (human, UniProt P30988 25-474; O60896 24-148)
T2 sequence (looked up) 1: T1 sequence (looked up)
T2 sequence (looked up) 2: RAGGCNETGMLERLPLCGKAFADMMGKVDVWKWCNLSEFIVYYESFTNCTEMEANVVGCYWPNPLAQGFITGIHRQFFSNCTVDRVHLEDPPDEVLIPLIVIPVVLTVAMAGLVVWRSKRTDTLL

B1: N-alpha-[(S)-4-Carboxy-4-(19-carboxynonadecanoylamino)butyryl]-His-His-[Glu14,His17,His35]-pramlintide (peptide)
peptide: {C20 diacid-γGlu}-HHKCNTATCATQRLAEFLHHSSNNFGPILPPTNVGSHTY-NH2
modifications: disulfide 4-9
SMILES: CC[C@H](C)[C@H](NC(=O)[C@@H]1CCCN1C(=O)CNC(=O)[C@H](Cc1ccccc1)NC(=O)[C@H](CC(N)=O)NC(=O)[C@H](CC(N)=O)NC(=O)[C@H](CO)NC(=O)[C@H](CO)NC(=O)[C@H](Cc1c[nH]cn1)NC(=O)[C@H](Cc1c[nH]cn1)NC(=O)[C@H](CC(C)C)NC(=O)[C@H](Cc1ccccc1)NC(=O)[C@H](CCC(=O)O)NC(=O)[C@H](C)NC(=O)[C@H](CC(C)C)NC(=O)[C@H](CCCNC(=N)N)NC(=O)[C@H](CCC(N)=O)NC(=O)[C@@H](NC(=O)[C@H](C)NC(=O)[C@@H]1CSSC[C@H](NC(=O)[C@H](CCCCN)NC(=O)[C@H](Cc2c[nH]cn2)NC(=O)[C@H](Cc2c[nH]cn2)NC(=O)CC[C@H](NC(=O)CCCCCCCCCCCCCCCCCCC(=O)O)C(=O)O)C(=O)N[C@@H](CC(N)=O)C(=O)N[C@@H]([C@@H](C)O)C(=O)N[C@@H](C)C(=O)N[C@@H]([C@@H](C)O)C(=O)N1)[C@@H](C)O)C(=O)N[C@@H](CC(C)C)C(=O)N1CCC[C@H]1C(=O)N1CCC[C@H]1C(=O)N[C@H](C(=O)N[C@@H](CC(N)=O)C(=O)N[C@H](C(=O)NCC(=O)N[C@@H](CO)C(=O)N[C@@H](Cc1c[nH]cn1)C(=O)N[C@H](C(=O)N[C@@H](Cc1ccc(O)cc1)C(N)=O)[C@@H](C)O)C(C)C)[C@@H](C)O
B2: N-alpha-[(S)-4-Carboxy-4-(19-carboxynonadecanoylamino)butyryl]-[Glu10,Glu14,His17]-pramlintide (peptide)
peptide: {C20 diacid-γGlu}-KCNTATCATERLAEFLHHSSNNFGPILPPTNVGSNTY-NH2
modifications: disulfide 2-7
SMILES: CC[C@H](C)[C@H](NC(=O)[C@@H]1CCCN1C(=O)CNC(=O)[C@H](Cc1ccccc1)NC(=O)[C@H](CC(N)=O)NC(=O)[C@H](CC(N)=O)NC(=O)[C@H](CO)NC(=O)[C@H](CO)NC(=O)[C@H](Cc1c[nH]cn1)NC(=O)[C@H](Cc1c[nH]cn1)NC(=O)[C@H](CC(C)C)NC(=O)[C@H](Cc1ccccc1)NC(=O)[C@H](CCC(=O)O)NC(=O)[C@H](C)NC(=O)[C@H](CC(C)C)NC(=O)[C@H](CCCNC(=N)N)NC(=O)[C@H](CCC(=O)O)NC(=O)[C@@H](NC(=O)[C@H](C)NC(=O)[C@@H]1CSSC[C@H](NC(=O)[C@H](CCCCN)NC(=O)CC[C@H](NC(=O)CCCCCCCCCCCCCCCCCCC(=O)O)C(=O)O)C(=O)N[C@@H](CC(N)=O)C(=O)N[C@@H]([C@@H](C)O)C(=O)N[C@@H](C)C(=O)N[C@@H]([C@@H](C)O)C(=O)N1)[C@@H](C)O)C(=O)N[C@@H](CC(C)C)C(=O)N1CCC[C@H]1C(=O)N1CCC[C@H]1C(=O)N[C@H](C(=O)N[C@@H](CC(N)=O)C(=O)N[C@H](C(=O)NCC(=O)N[C@@H](CO)C(=O)N[C@@H](CC(N)=O)C(=O)N[C@H](C(=O)N[C@@H](Cc1ccc(O)cc1)C(N)=O)[C@@H](C)O)C(C)C)[C@@H](C)O
B3: N-alpha-[(S)-4-Carboxy-4-(19-carboxynonadecanoylamino)butyryl]-[Glu14,His17,Ala25,Pro26,Ser28,Ser29,His35]-pramlintide (peptide)
peptide: {C20 diacid-γGlu}-KCNTATCATQRLAEFLHHSSNNFGAPLSSTNVGSHTY-NH2
modifications: disulfide 2-7
SMILES: CC(C)C[C@H](NC(=O)[C@H](CCCNC(=N)N)NC(=O)[C@H](CCC(N)=O)NC(=O)[C@@H](NC(=O)[C@H](C)NC(=O)[C@@H]1CSSC[C@H](NC(=O)[C@H](CCCCN)NC(=O)CC[C@H](NC(=O)CCCCCCCCCCCCCCCCCCC(=O)O)C(=O)O)C(=O)N[C@@H](CC(N)=O)C(=O)N[C@@H]([C@@H](C)O)C(=O)N[C@@H](C)C(=O)N[C@@H]([C@@H](C)O)C(=O)N1)[C@@H](C)O)C(=O)N[C@@H](C)C(=O)N[C@@H](CCC(=O)O)C(=O)N[C@@H](Cc1ccccc1)C(=O)N[C@@H](CC(C)C)C(=O)N[C@@H](Cc1c[nH]cn1)C(=O)N[C@@H](Cc1c[nH]cn1)C(=O)N[C@@H](CO)C(=O)N[C@@H](CO)C(=O)N[C@@H](CC(N)=O)C(=O)N[C@@H](CC(N)=O)C(=O)N[C@@H](Cc1ccccc1)C(=O)NCC(=O)N[C@@H](C)C(=O)N1CCC[C@H]1C(=O)N[C@@H](CC(C)C)C(=O)N[C@@H](CO)C(=O)N[C@@H](CO)C(=O)N[C@H](C(=O)N[C@@H](CC(N)=O)C(=O)N[C@H](C(=O)NCC(=O)N[C@@H](CO)C(=O)N[C@@H](Cc1c[nH]cn1)C(=O)N[C@H](C(=O)N[C@@H](Cc1ccc(O)cc1)C(N)=O)[C@@H](C)O)C(C)C)[C@@H](C)O
B4: N-alpha-[(S)-4-Carboxy-4-(17-carboxyheptadecanoylamino)butyryl]-Glu-[Glu14,His17,His35]-pramlintide (peptide)
peptide: {C18 diacid-γGlu}-EKCNTATCATQRLAEFLHHSSNNFGPILPPTNVGSHTY-NH2
modifications: disulfide 3-8
SMILES: CC[C@H](C)[C@H](NC(=O)[C@@H]1CCCN1C(=O)CNC(=O)[C@H](Cc1ccccc1)NC(=O)[C@H](CC(N)=O)NC(=O)[C@H](CC(N)=O)NC(=O)[C@H](CO)NC(=O)[C@H](CO)NC(=O)[C@H](Cc1c[nH]cn1)NC(=O)[C@H](Cc1c[nH]cn1)NC(=O)[C@H](CC(C)C)NC(=O)[C@H](Cc1ccccc1)NC(=O)[C@H](CCC(=O)O)NC(=O)[C@H](C)NC(=O)[C@H](CC(C)C)NC(=O)[C@H](CCCNC(=N)N)NC(=O)[C@H](CCC(N)=O)NC(=O)[C@@H](NC(=O)[C@H](C)NC(=O)[C@@H]1CSSC[C@H](NC(=O)[C@H](CCCCN)NC(=O)[C@H](CCC(=O)O)NC(=O)CC[C@H](NC(=O)CCCCCCCCCCCCCCCCC(=O)O)C(=O)O)C(=O)N[C@@H](CC(N)=O)C(=O)N[C@@H]([C@@H](C)O)C(=O)N[C@@H](C)C(=O)N[C@@H]([C@@H](C)O)C(=O)N1)[C@@H](C)O)C(=O)N[C@@H](CC(C)C)C(=O)N1CCC[C@H]1C(=O)N1CCC[C@H]1C(=O)N[C@H](C(=O)N[C@@H](CC(N)=O)C(=O)N[C@H](C(=O)NCC(=O)N[C@@H](CO)C(=O)N[C@@H](Cc1c[nH]cn1)C(=O)N[C@H](C(=O)N[C@@H](Cc1ccc(O)cc1)C(N)=O)[C@@H](C)O)C(C)C)[C@@H](C)O
B5: N-alpha-[(S)-4-Carboxy-4-(19-carboxynonadecanoylamino)butyryl]-His-His-[His1,Glu14,His17,Ser21,Glu35]-pramlintide (peptide)
peptide: {C20 diacid-γGlu}-HHHCNTATCATQRLAEFLHHSSSNFGPILPPTNVGSETY-NH2
modifications: disulfide 4-9
SMILES: CC[C@H](C)[C@H](NC(=O)[C@@H]1CCCN1C(=O)CNC(=O)[C@H](Cc1ccccc1)NC(=O)[C@H](CC(N)=O)NC(=O)[C@H](CO)NC(=O)[C@H](CO)NC(=O)[C@H](CO)NC(=O)[C@H](Cc1c[nH]cn1)NC(=O)[C@H](Cc1c[nH]cn1)NC(=O)[C@H](CC(C)C)NC(=O)[C@H](Cc1ccccc1)NC(=O)[C@H](CCC(=O)O)NC(=O)[C@H](C)NC(=O)[C@H](CC(C)C)NC(=O)[C@H](CCCNC(=N)N)NC(=O)[C@H](CCC(N)=O)NC(=O)[C@@H](NC(=O)[C@H](C)NC(=O)[C@@H]1CSSC[C@H](NC(=O)[C@H](Cc2c[nH]cn2)NC(=O)[C@H](Cc2c[nH]cn2)NC(=O)[C@H](Cc2c[nH]cn2)NC(=O)CC[C@H](NC(=O)CCCCCCCCCCCCCCCCCCC(=O)O)C(=O)O)C(=O)N[C@@H](CC(N)=O)C(=O)N[C@@H]([C@@H](C)O)C(=O)N[C@@H](C)C(=O)N[C@@H]([C@@H](C)O)C(=O)N1)[C@@H](C)O)C(=O)N[C@@H](CC(C)C)C(=O)N1CCC[C@H]1C(=O)N1CCC[C@H]1C(=O)N[C@H](C(=O)N[C@@H](CC(N)=O)C(=O)N[C@H](C(=O)NCC(=O)N[C@@H](CO)C(=O)N[C@@H](CCC(=O)O)C(=O)N[C@H](C(=O)N[C@@H](Cc1ccc(O)cc1)C(N)=O)[C@@H](C)O)C(C)C)[C@@H](C)O
B6: N-alpha-[(S)-4-Carboxy-4-(17-carboxyheptadecanoylamino)butyryl]-[Glu14,Arg17]-pramlintide (peptide)
peptide: {C18 diacid-γGlu}-KCNTATCATQRLAEFLRHSSNNFGPILPPTNVGSNTY-NH2
modifications: disulfide 2-7
SMILES: CC[C@H](C)[C@H](NC(=O)[C@@H]1CCCN1C(=O)CNC(=O)[C@H](Cc1ccccc1)NC(=O)[C@H](CC(N)=O)NC(=O)[C@H](CC(N)=O)NC(=O)[C@H](CO)NC(=O)[C@H](CO)NC(=O)[C@H](Cc1c[nH]cn1)NC(=O)[C@H](CCCNC(=N)N)NC(=O)[C@H](CC(C)C)NC(=O)[C@H](Cc1ccccc1)NC(=O)[C@H](CCC(=O)O)NC(=O)[C@H](C)NC(=O)[C@H](CC(C)C)NC(=O)[C@H](CCCNC(=N)N)NC(=O)[C@H](CCC(N)=O)NC(=O)[C@@H](NC(=O)[C@H](C)NC(=O)[C@@H]1CSSC[C@H](NC(=O)[C@H](CCCCN)NC(=O)CC[C@H](NC(=O)CCCCCCCCCCCCCCCCC(=O)O)C(=O)O)C(=O)N[C@@H](CC(N)=O)C(=O)N[C@@H]([C@@H](C)O)C(=O)N[C@@H](C)C(=O)N[C@@H]([C@@H](C)O)C(=O)N1)[C@@H](C)O)C(=O)N[C@@H](CC(C)C)C(=O)N1CCC[C@H]1C(=O)N1CCC[C@H]1C(=O)N[C@H](C(=O)N[C@@H](CC(N)=O)C(=O)N[C@H](C(=O)NCC(=O)N[C@@H](CO)C(=O)N[C@@H](CC(N)=O)C(=O)N[C@H](C(=O)N[C@@H](Cc1ccc(O)cc1)C(N)=O)[C@@H](C)O)C(C)C)[C@@H](C)O

The binders below were run against T1, human calcitonin (a) receptor (assay: cell-based or functional assay).

| CTa receptor human EC50 | Binder |
| --- | --- |
| 0.115 nM | B1 |
| 0.2 nM | B2 |
| 0.0945 nM | B3 |
| 0.169 nM | B4 |
| 0.632 nM | B5 |
| 0.6 nM | B6 |

These binders were tested against T2, human amylin 3(a) receptor (human …) (assay: cell-based or functional assay).

| Amylin receptor human EC50 | Binder |
| --- | --- |
| 0.0965 nM | B1 |
| 0.13 nM | B2 |
| 0.153 nM | B3 |
| 0.102 nM | B4 |
| 0.558 nM | B5 |
| 0.061 nM | B6 |
